Experimental data taken from patent US20050063985A1 (MCW RESEARCH FOUNDATION, published 2005).

Molecular target: T1, glutathione S transferase (pGEX-4T-2 vector control lysate) (UniProt P08515 1-218 = GST)
T1 construct: In a bacterial lysate; also called GST; Control bacterial lysates encoding only glutathione S transferase
Test: Western or dot blot, bacterial lysate

T1 sequence (P08515 whole entry): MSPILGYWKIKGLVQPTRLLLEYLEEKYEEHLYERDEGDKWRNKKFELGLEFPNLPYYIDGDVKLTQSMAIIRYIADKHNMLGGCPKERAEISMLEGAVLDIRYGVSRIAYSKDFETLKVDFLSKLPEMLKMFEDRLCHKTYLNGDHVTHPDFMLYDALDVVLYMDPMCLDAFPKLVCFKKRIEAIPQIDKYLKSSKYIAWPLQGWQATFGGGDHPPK

B1: monoclonal antibody mab 166 (antibody, V domains shown)
VH: QVQLKQSGPGLVQPSQSLSITCTVSGFSLTSYGVHWVRQSPGKGLEWLGVIWSGGDTDYNAAFISRLSISKDNSKSQLFFKMNSLRATDTAIYYCARNRGDIYYDFTYAMDYWGQGTSVTVSS
VL: DIQMTQSPASLSASVGETVTITCRASGNIQNYLAWYQQTQGKSPQLLVYSAKTLADGVPSRFSGSGSGTQYSLKINSLQPEDFGSYYCQHFWSTPYTFGGGTKLEIKR
notes: also called mabl66; m166
- binding result: no binding
